One molecule from CN111138527A (INST MILITARY MEDICINE ACADEMY MILITARY SCIENCES PLA, dated 2020) can be followed below.

A word on the EC50: it is the midpoint of the concentration-response curve.

In this experiment the target is 截短型抗原蛋白GPdM (Ebola virus (EBOV), UniProt Q05320 33-632). The experiment in a line: ELISA on coated truncated GP. In general terms: ELISA stands for enzyme-linked immunosorbent assay.

B1: 抗埃博拉病毒糖蛋白GP1亚基的单克隆抗体4F1 (antibody, V domains shown)
VH: EVQLVESGGGLVQPGGSLRLSCAASGFSFRIYDMHWVRQVTGRGLEWVSAIGSASDTYYRDSVKGRFTISRENAKNSLYLQMNSLRAGDTAVYYCARASFGELMFDLWGQGTLVTVSS
VL: DIQMTQSPSSLSLSPGERATLSCRASQSVGSSLAWYQQKPGQAPRLLIYAASSRATGFPDRFSGSGSGTDFTLTISRLEPEDFAVYYCQQYGGSPLTFGGGTKVEIKT
On to B1, for which the EC50 was determined as 6.9 ng/mL.
